Here are results for 41 sequences from the nanobody polyreactivity screen of Harvey et al. (2022).

This series can be described thus: yeast display, Sf9 membrane polyspecificity reagent, FACS + sequencing; frameworks hold sequencing errors. An outline of the steps:
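A nanobody's polyreactivity label depends on the gate it was sorted from. Yeast display cells were stained with 10% biotinylated, detergent-solubilized Sf9 membrane reagent for 1 hour at 4 °C, enriched on streptavidin microbeads and sorted by FACS. The low and high (top ~1%) gates were set on anti-HA fluorescence for expression and streptavidin fluorescence for reagent binding.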
Regarding “QVQLVESGAGLVQAGGSLRLSCAASGITFAYYAMGWYRQAPGKERELVAAIRGGTNTYYADSVKGSYTISRDNAKNTVYFLMNSLKPEDTAVYYCAARRSSHWFTYDYWGQGTLVTVSS”, the “polyreactivity (PSR sort gate)” value is listed as “high polyreactivity”.
Regarding “QVQLVESRGGLVQAGGSLRLSCAASGRILDLNSMGWYRQAPGKEREFVAAISYSGGRTYYADSVKGRFTISRDNAKNTVYLQMNSLKPEDTAVYYCATDDVWKDGYWGQGTQVTVSS”, the “polyreactivity (PSR sort gate)” value is given as “low polyreactivity”.
Then “QVQLVESGGGLVQAGGSLRLSCAASGRIFAAYAMGWYRQAPGKERELVAAITWDGDSTYYADSVKGRFTISRDNAKNTVYLQMNSLKPEDTAVYYCAAYWSTWYDWGQGTQVTVSS”, with “high polyreactivity”; and “QVQLVESGGGLVQAGGSLRLSCAASGRIFRYNAMGWYRQAPGKERELVAAITRSGGSTYYADSVKGRFTISRDNAKNTVYLQMNSLKPEDTAVYYCAKVQNGQWSTSRVPGDYQYNYWGQGTQVTVSS”, with “high polyreactivity”.
Regarding “QVQLVESGGGLVQAGGSLRLSCAASGSTLRRYAMGWSRQAPGKERELVAAISGSGDSTYYADSVKGRFTISRDNAKNTVYLQMNSLKPEDTAVYYCNAVYAFNGYDYWGQGTQVTVSS”, the “polyreactivity (PSR sort gate)” value is given as “low polyreactivity”.
The same measure for “QVQLVESGGGLVQAGGSLRLSCAASGFTFVYYAMGWYRQAPGKERELVPAISWNGGSTYYADSVKGRFTISRDNAKNTVYLQMNCLKPEDTAVYYCAAEYSYRLLQTFYYPYGYWGQGTQVTVSS”: “high polyreactivity”; for “QVQLVESGGGLVQAGGSLRLSCAASGSTFGRYAMGWYRQAPGKERELVAAIDWSGGSTYYADSVKGRFTISRDNAKNTVYLQMNSLKPEDTAVYYCAAEAYSQYRTPGFDYYYWGQGTQVTVSS”: “high polyreactivity”; for “QVQLVESGGGLVQAGGSLRLSCAASGRTFNVYAMGWYRQAPGKERELVAVITNGGSTNYADSVKGRFTISRDNAKNTVYLQMNSLKPEDTAVYYCAADYYASLTREDRDDYWGQGTQVTVSS”: “low polyreactivity”.
As to “QVQLVESGGGLVQAGGSLRLSCAASGIIFQRNDMGWYRQAPGKERELVASITSGGSTNYADSVKGRFTISRDNAKNTVYLQMNSLKPEDTAVYYCARVSVSDYDYWGQGTQVTVSS”, the “polyreactivity (PSR sort gate)” value was “low polyreactivity”.
For “QVQLVESGGGLVQAGGSLRLSCAASGRTFSDYAMGWYRQAPGKERELVAAISNGGNTYADSVKGRFTISRDNAKNTVYLQMNSLKPEDTAVYYCNKESGDTARQSIMPSGRGDYWGQGTQVTVSS”, the “polyreactivity (PSR sort gate)” value was “low polyreactivity”.
For “QVQLVESGVGLVQAGGSLRLSCAASGFIFSSYAMGWYRQAPGKERELVAAISRSGGRTYYADSVKGRFTISRDNAKNTVYLQMNSLKPEDTAVYYCDATWLGTDGDDYWGQGTQVTVSS”, the “polyreactivity (PSR sort gate)” value was “high polyreactivity”.
For the sequence “QVQLVESGGGLVQAGGSLRLSCADSGRIIYKNAMGWYRQAPGKERELVAAITSSGGSTYYADSVKGRFTISRDNAKNTVYLQMNSLTPVDTAVYYCAAYAYVRFGKLNYWGQGTQVTVSS”, the “polyreactivity (PSR sort gate)” value is “low polyreactivity”.
“QVQLVESGGGLVQAGGSLRLSCAASGRTFPGNAMGWYRQAPGKERELVAAISSRGGSTYYADSVKGRFTISRDNAKNTVYLQMNSLKPEDTAVYYCARRYLPYGGYYYWGQGTQVTVSS”: the “polyreactivity (PSR sort gate)” value is “high polyreactivity”.
“QVQLVESGGGLVQAGGSLRLSCAASGFTFGTYNMGWSRQAPGKERELVASISRRGGRTDYADSVKGRFTISRHNAKNTVYLQMNSLKPEDTAVYYCNAAYPYGGFPYDYWGQGTQVTVSS”: the “polyreactivity (PSR sort gate)” value is recorded as “high polyreactivity”.
The same measure for “QVQLVESGGGLVQAGGSLRLSCAASGFIFPYYDMGWYRQAPGKEREFVAAITKSGGRTYYADSVKGRFTISRDNAKNTVYLQMNSLKPEDTAVYYCNADDPDYLVSYRYDYWGQGTQVTVSS”: “low polyreactivity”.
On to “QVQHVESGGGLVQAGGSLRLSCAASGYIFSRYMGWYRQAPGKERQLVAAITRGGVSTYYADSVKGRFTISRDNAKNTVYLQMNSLKPEDTAVYYCATGRPVYYVASYDYDYWGQGTQVTVSS”, for which the “polyreactivity (PSR sort gate)” value was “low polyreactivity”.
With “QVQLVESGGGLVQAGGSLRLSCAASGQIFHSYAMGWSRQAPGKERELVAAISRGGGSTYYADSVKGRFTISRDNAKNTVYLQMNSLKPEDTAVYYCARENLTRYDYWGQGTQVTVSS”, the “polyreactivity (PSR sort gate)” value is listed as “high polyreactivity”.
The same measure for “QVQLVESGGGLVQAGGSLRLSCAASGSTFQGYAMGRYRQAPGKERELVAGITGSGGSSYYADSVKGRFTISRDNAKNTVYLQMNSLKPEDTAVYYCAARYYQSYYYKYYYWGQGTQVTVSS”: “high polyreactivity”; for “QVQLVESGGGIVQAGGSLRLSCAASGNTFHYYVMGWYRQAPGKERELVAAITYTGGSTYYADSVKGRFTISRDNAKNTVYLQMISLKPEDTAVYYCAAGFSPASQLDYWGQGTQVTVSS”: “low polyreactivity”.
As to “QVQLVESGGGLVQAGGSLRLSCAASGRIFGYNAMGWYRQAPGKVRELVAAITTSGGSTYYADSVTGRFTISRDTAKNTVYLQMNSLKPEDTAVYYCARDSLQVFYQYASDDYWGQGTQVTVSS”, the “polyreactivity (PSR sort gate)” value is “low polyreactivity”.
“QVQLVESGGGLVQAGGSLRLTCAASGFIFYKYAMGWYRQAPGKERELVAAISRGGGSTYYADSVKGRFTISRDNAKNTVYLQMNSLKPEETAVYYCAAQAFIVRPSYVPRHNYWGQGTQVTVSS”: the “polyreactivity (PSR sort gate)” value was “high polyreactivity”.
The same measure for “QFQLVESGGGLVQAGVVSLKLCCLRKHFIYYAMAWSRQAPWKDTELVAGINSGGSTKYADSVKRRFTISRDNAKNSVYLQMNSLKPEDTAVYYCNADSYSPVIQEYDYWGQGTQVTVSS”: “low polyreactivity”.
As to “QVQLVESGGGLVQAGGSLRLSFAASGSTFHYYAMGWYRQAPGKERELVAAINSGARTYYADSVKGRFTISRDNAKNTVYLQMNSLKPEDTAVYYCAADDSYRSIGGDYWGQGTQVTVSS”, the “polyreactivity (PSR sort gate)” value is recorded as “low polyreactivity”.
Then “QVQLVESGGGLVQAGGSLRLSCAASGIIFGFNAMRWYRQAPGKEREFVADITYSGGSTYYADSVKGRFTISRDNAKNTVYLHMNSLKPEDTAVYYCAADEVSFWGYIYDYWGQGTQVTVSS”, with “high polyreactivity”; and “QVQLVESGGGLVQAGGSLRLSCAASGRTVVNAMGWYRQAPGKERELVAAISSNGGRTYYADSVKGRFTISRDNAKNTVYLQMNSLKPEDTAVYYCATRWIKGRKMDYWGQGTQVTVSS”, with “high polyreactivity”; and “QVQLVKSGGGLVQAGGSLRLSCAASGSTFYNAMGWYRQAPGKERELVAAISIGGSTYYADSVKGRFTISRDNAKNTVYLQMNSLKPEDTAVYYCAAVWYTSRQKYDYWGHGTQVTVSS”, with “low polyreactivity”.
For the sequence “QVQLVESGGGLVQAGGRLRLSCAASGRIFSQYSMGWYRQAPGKERELVAAISSRGGRTYYADSVKGRFTFSRDNAKNTVYLQMNSLKPEDTAVYYCAAYVYPWGRDYWGQGTQVTVSS”, the “polyreactivity (PSR sort gate)” value was “high polyreactivity”.
Regarding “QVQLVQSGGGLVQAGGSLRLSCAASGRTFGRYAMGWYRQAPGKERELVAAINRGGSTKYADSVQGRFTISRDNAKNTVYLQMNSLKPEDTAVYYCAKDRHPALLYDYWGQGTEVTVSS”, the “polyreactivity (PSR sort gate)” value is “low polyreactivity”.
Then “QVQLVESGGGLVQAGGSLRLSCAPSGRNFTYYDMGRYRQAPGKEREFVAVISDNDSSTYADSVKGRFTISPDNAKNTVYLQMNRLKPEDTAVYYCNAYRQYRSWRYDYWGQGTQVTVSS”, with “high polyreactivity”; and “QVQLVESGGGLVQAGGSLRLTCAASGSIFVSYARGWYREAPGKERELVAAITSAGTPYYADSVKGRFTISRDNAKNTVYLQMNSLKPDDTAVYYCNTDASLKRTRVSPETEYGYWGQGTQVTVSS”, with “low polyreactivity”; and “QVQLVESGGGLVQAGGSLRLSSAASGRIFRGYTMGCSRQAPGKDRELVAAISRSGTRTYYADSVKGRFPISRDNAKNTGYLQMNSLTPEDTAVYDCAVDSTTAGTGMGYWGQGTQVTVSS”, with “high polyreactivity”.
Consider “QVQLVESGGGLVQAGGSLRLSCAASGRTIAYNAMGWYRQAPGKERELVAAISWSGGSTYYADSVKGRFTISRDNAKNTVYLQMNSLKPEDTAVYYCAKRFGQYRYPYDYWGQGTQVTVSS”, for which the “polyreactivity (PSR sort gate)” value is “high polyreactivity”.
For the sequence “QVQLVESGGGLVQAGGRLRLSCAASGRTFRYYGMGWYRQAPWKERELVAAISWSGGSTYYADSVKGRFTISRDNAKNTVYLQMNSLTPEDTAVYYCNVDFHWQRFHHKSAAYDYWGQGTQVTVSS”, the “polyreactivity (PSR sort gate)” value is “high polyreactivity”.
On to “QVQLGDSGGGLVQAGGSLRLSCAASGSIFVGYAMGWYRQAPGKERELVAAISWSGDSTYYAVSVKGRFTMSRDNAKNTVYLQMNSLKPEDTAVYYCAVDYAENGPRREVEYDYWGQGTQVTVSS”, for which the “polyreactivity (PSR sort gate)” value was “low polyreactivity”.
The same measure for “QDQHVESGGGLVQAGGSLRLSCDASGFIFTYYAMGWYRQAPGKERELVAAISRSGGNTYYADSVKGRFTISRDNAKNTVYLQMNSLIPEDTAVYYCAAETRRGGYWGYEYYYWGQGTQVTVSS”: “high polyreactivity”; for “QVQLVESAGGLVQAGGSLSLSCAASGSIFIWYAMGWDRQAPGKERELVAAIRSGGSTYYADSVKGRFTISRDNAKNTVYLQMNSLKPEYTAVYYCAKVLTWRGYRYNYWGQGTQVTVSS”: “low polyreactivity”.
For the sequence “QVQLVESGGGLVQAGGSLRLSCSASGSILSAYDMGWYRQATGKERELVAAIDSSGGSTYYADSVKGRFTISRDNAKNTVYLQMNSLKPEDTAVYYCAATSLAGYYKFDYWGQGSQVTVSS”, the “polyreactivity (PSR sort gate)” value was “low polyreactivity”.
Take “QFQLVESGGGLVQAGGTLRLSCAASGSTFYHYPLGWYRQAPGTVRQLVARITSSSGSTYYADSVKGRFTISRDNAKNTVYLQMYSLKPEDTAVYYCAASYYIVPYLTYGYWGQGTQVTVSS”: the “polyreactivity (PSR sort gate)” value is recorded as “low polyreactivity”.
In the case of “QVQLVESGGGLVQAGGSLRLSCAASGRIFNTYAMGWYRQAPGKERELVAVISSRGGSTYYADSVKGRFTISRDNAKNTVYLQMNSLKPEDTAVYYCAARGRGQPFVRYDYWGQGTQVTVSS”, the “polyreactivity (PSR sort gate)” value is “high polyreactivity”.
With “QVQRVESGGGLVQAGGSLRLSCAASGSIVQQYAMGWYRQAPGKERELVAAISYSGGTTYYADSVKGRFTISRDNAKTTVYLQMNSLKPEDTAVYYCAAYYPSGSYDYYWGQGTQVTVSS”, the “polyreactivity (PSR sort gate)” value was “low polyreactivity”.
“QVQLVESGGGLVQAGGSLRLSCAASGFTVWLYAMGWYRQAPGKEREFVAAISTSGGSTYADSVKGRFTISRDNAKKTVYLQMNSLKPEDTAVYYCAADDLPSTGYDYWGQRTQVTVSS”: the “polyreactivity (PSR sort gate)” value is listed as “low polyreactivity”.
